Publication PMC8037251, “Molecular Characterization of the Extracellular Domain of Human Junctional Adhesion Proteins” (International Journal of Molecular Sciences, 2021)

B1: MBP-fused extracellular domain of human JAM-A (Gly27-Arg228) (domain or fragment, UniProt Q9Y624 27-228, looked up)
chain: GSVTVHSSEPEVRIPENNPVKLSCAYSGFSSPRVEWKFDQGDTTRLVCYNNKITASYEDRVTFLPTGITFKSVTREDTGTYTCMVSEEGGNSYGEVKVKLIVLVPPSKPTVNIPSSATIGNRAVLTCSEQDGSPPSEYTWFKDGIVMPTNPKSTRAFSNSSYVLNPTTGELVFDPLSASDTGEYSCEARNGYGTPMTSNAVR
notes: JAM-A, human, extracellular domain, Gly27-Arg228 of Q9Y624; No protease site between MBP and the target in the final design (pET28a-MBP, NdeI/XhoI); also called junctional adhesion molecule A; source: E. coli SHuffle T7 Express, purified (amylose resin, size exclusion chromatography); not shown: MBP, N-terminal, kept
B2: MBP-fused extracellular domain of human JAM-B (Gly28-Ser238) (domain or fragment, UniProt P57087 28-238, looked up)
chain: GFSAPKDQQVVTAVEYQEAILACKTPKKTVSSRLEWKKLGRSVSFVYYQQTLQGDFKNRAEMIDFNIRIKNVTRSDAGKYRCEVSAPSEQGQNLEEDTVTLEVLVAPAVPSCEVPSSALSGTVVELRCQDKEGNPAPEYTWFKDGIRLLENPRLGSQSTNSSYTMNTKTGTLQFNTVSKLDTGEYSCEARNSVGYRRCPGKRMQVDDLNIS
notes: JAM-B, human, extracellular domain, Gly28-Ser238 of P57087; No protease site between MBP and the target in the final design; Octamer by size exclusion; also called junctional adhesion molecule B; source: E. coli SHuffle T7 Express, purified (amylose resin, size exclusion chromatography); not shown: MBP, N-terminal, kept
B3: MBP-fused extracellular domain of human JAM4 (Gly34-Arg286) (domain or fragment, UniProt Q9NSI5 34-286, looked up)
chain: GSGSGNEVIEGPQNARVLKGSQARFNCTVSQGWKLIMWALSDMVVLSVRPMEPIITNDRFTSQRYDQGGNFTSEMIIHNVEPSDSGNIRCSLQNSRLHGSAYLTVQVMGELFIPSVNLVVAENEPCEVTCLPSHWTRLPDISWELGLLVSHSSYYFVPEPSDLQSAVSILALTPQSNGTLTCVATWKSLKARKSATVNLTVIRCPQDTGGGINIPGVLSSLPSLGFSLPTWGKVGLGLAGTMLLTPTCTLTIR
notes: JAM4, human, extracellular domain, Gly34-Arg286 of Q9NSI5; No protease site between MBP and the target in the final design; Decamer by size exclusion; source: E. coli SHuffle T7 Express, purified (amylose resin, size exclusion chromatography); not shown: MBP, N-terminal, kept

Columns and labels:
[1] = biological target: the molecule itself; assay: SEC; ENrich SEC 650 10 x 300 column, PBS as running buffer; peak positions compared with BioRad size exclusion standards; oligomeric state of the MBP fusion
[2] = biological target: B1; assay: SPR; as the other SPR (OpenSPR, amine-coupled ligand on a Carboxy chip, caprate between injections, 1:1 Langmuir fit) but in the presence of 3 mM CaCl2 (E-CAD experiments); details: both partners purified
[3] = biological target: the molecule itself; assay: as above
[4] = biological target: B2; assay: SPR; OpenSPR (Nicoya), ligand protein (0.100 mg) amine-coupled to a Carboxy sensor chip; 1 M sodium caprate injected to disrupt preformed interactions and after each analyte; analyte 12.5-100 ug per 200 uL injection, triplicate; global fit, 1:1 Langmuir model, TraceDraw; details: both partners purified
[5] = biological target: B3; assay: as above; details: both partners purified
[6] = biological target: the molecule itself; assay: as above

Binder	stoichiometry N [1]	Kd [2] [nM]	koff [2] [s⁻¹]	kon [2] [M⁻¹ s⁻¹]	Kd [3] [nM]	koff [3] [s⁻¹]	kon [3] [M⁻¹ s⁻¹]	Kd [4] [nM]	koff [4] [s⁻¹]	kon [4] [M⁻¹ s⁻¹]	Kd [5] [nM]	koff [5] [s⁻¹]	kon [5] [M⁻¹ s⁻¹]	Kd [6] [nM]	koff [6] [s⁻¹]	kon [6] [M⁻¹ s⁻¹]
MBP-fused extracellular domain of human epithelial cadherin (Val102-Asp312) (domain or fragment) VIPPISCPENEKGPFPKNLVQIKSNKDKEGKVFYSITGQGADTPPVGVFIIERETGWLKVTEPLDRERIATYTLFSHAVSSNGNAVEDPMEILITVTDQNDNKPEFTQEVFKGSVMEGALPGTSVMEVTATDADDDVNTYNAAIAYTILSQDPELPDKNMFTINRNTGVISVVTTGLDRESFPTYTLVVQAADLQGEGLSTTATAVITVTD	2	308	0.000708	2340	197	0.000696	4650	–	–	–	–	–	–	–	–	–
B1	2	–	–	–	–	–	–	2.82	5.09e-05	16500	2.33	4.09e-06	1600	76.6	0.000838	13100
B2	8	–	–	–	–	–	–	–	–	–	159	0.000128	1210	9.97	5.36e-05	4800
MBP-fused extracellular domain of human JAM-C (Gly30-Glu236) (domain or fragment, UniProt Q9BX67 30-236, looked up, JAM-C, human, extracellular domain, Gly30-Glu236 of Q9BX67; No protease site between MBP and the target in the final design; Tetramer by size exclusion; also called junctional adhesion molecule C; source: E. coli SHuffle T7 Express, purified (amylose resin, size exclusion chromatography); not shown: MBP, N-terminal, kept) GAVNLKSSNRTPVVQEFESVELSCIITDSQTSDPRIEWKKIQDEQTTYVFFDNKIQGDLAGRAEILGKTSLKIWNVTRRDSALYRCEVVARNDRKEIDEIVIELTVQVKPVTPVCRVPKAVPVGKMATLHCQESEGHPRPHYSWYRNDVPLPTDSRANPRFRNSSFHLNSETGTLVFTAVHKDDSGQYYCIASNDAGSARCEEQEME	4	–	–	–	–	–	–	0.203	1.76e-05	85400	0.0925	1.96e-07	2030	30.2	2.26e-05	782
B3	10	–	–	–	–	–	–	–	–	–	–	–	–	0.139	2.04e-07	1670
